B1: TPR t1 (parent)
chain: GACCAAUCUGCCCUCAGAGCUCGAGAACAUCUUCGGAUGCAGAGGAGGCAGGCUUCGGUGGCGCGAUAGCGCCAACGUCCUCAACCUCCAAUGCAUCCCACCACAUGAUGAUGCCUGAAGAGCCUUGGUUUUUUG

Variants of: B1
Test: polymerase ribozyme fitness, log enrichment relative to wild type (log ratio); higher = more active; in vitro selection for triplet polymerase activity
In short: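 Libraries of mutants in each subunit of a heterodimeric triplet polymerase ribozyme were generated by PCR and transcribed. In triplicate, each went through one in vitro selection round: annealing with biotinylated primer, partner subunit and triplets; frozen incubation at −7 °C; gel excision of extended constructs; streptavidin-bead capture; RT-PCR. Fitness, taken from Illumina sequencing of input and output libraries, is the logarithm of a genotype's enrichment over wild-type enrichment, averaged across replicates with inverse-variance weights. The logarithm is base 2, and genotypes needed ≥10 input reads and ≥1 read per output to be kept.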

Variant	polymerase ribozyme fitness (log ratio)
C76A C79U C82G A100C C101A	-4.79
C76A U81A C89U	-1.33
G77A U78G	-0.219
A74G A91G G93C G120C	-2.64
U78A C101G	-2.13
U78A C104A C114A	-5.24
C73U C79A A95G	-0.961
G77U G113A G135A	-1.34
C73U A84G G117C	-4.85
A75U G113A G127C	-2.56
C73U C123G	2.14
C73U C123U	0.98
A74G G77U C98U C104A	-2.74
A74U G120A	0.0292
C76U U106C G128C	-3.51
G77C A121U	0.189
A74G A100U G128U	-3.08
U78C A83U G107U	-5.42
G77A U92G C94A C99G A111C	-8.36
C73U C98U	-0.593
G77C U131G	-0.172
C73G C89A C104U A119U	-3.03
C73U C94U	-0.847
U78A C88U U96G U129A U131A	-2.62

Variant	polymerase ribozyme fitness (log ratio)
A74G A103G G117U U133G	-6.53
C73U G128U	-1.62
A74C C89A U96A C115A	-3.51
G77U C89U	-0.519
U78A A95U	-0.329
U78C A83C G113U	-3.26
C76U U81C A100U G110A	-3.78
A74G C101A	-0.767
C73U G120U	0.0471
C73U A84C U92G U112A	-2.54
A74U U129A	-1.52
G77C C86U A90C U125A	-1.83
C76G G93A C115G	-4.44
G77U G117A	-1.62
C73U A75U U87A U92A	-4.13
C76A C79G C123G	0.511
G77A C80U G113A	-1.46
U78A U133A	-0.443
C73G C85G G120A	-2.18
A75G G120A A121C	0.562
C73U G93A	-0.23
A74C C124U	1.08
G77A C115U G128A	-3.21
C73G C104G A121G	-5.73

Variant	polymerase ribozyme fitness (log ratio)
C76A A83C	-0.201
U78A C104A	-1.8
A75U U81G	-3.97
C73U C88U U125G	-1.1
G77U U109A U116G	-7.07
C76G A118G G122U	-0.593
G77A G93A A100G U112C U131A	-2.12
C73G U112A G117U	-2.94
C73U C79U U87A	-0.627
A74C G113U U133A	-3.26
A75U C79G C88U U130G	-2.82
G77U C89A U109A	-6.3
A74G U87A G117C G120A A121U U129A	-6.07
A74U C88A C104A	-2.72
A74G A95U	-0.0785
A74C U130A U131A U133A	-2.13
C73G G77U U125G U133G	-1.69
A74U G93U G120A U125G U129G	-2.55
A74U C115U A118U C124U	-0.812
G77A A91G C114U	-2.54
A75G U96A A105G	-6.14
A74U A83G	-0.972
C73U U92G	-2.88
A74U	-0.247

Variant	polymerase ribozyme fitness (log ratio)
A74G	0.0609
A74C	-0.272
G77A C97U	-0.317
G77C C124U G127A U129A	-0.0326
G77C C101A G127A	-2.16
U78C A83U G117C A119U	-3.98
C73U A95C	-1.16
C73U C86U	0.0966
C73U C86G	-2.49
C76A U106A	-1.33
C76G G113A G122C G135U	-2.49
G77C G110A A118C	-1.65
A74U G128C	-2.66
U78C A84C G113U G128A	-4.29
C76G C114U	-2.74
C73U U87C C88U A111G C123A	-2.06
U78A U131C	0.382
A74U C89G U112A	-2.2
C76U U112A	0.984
A74U C82U G120A G122U	-0.0704
G77U G120C	0.43
G77U G120A	-0.148
G77A C102A	-2.07
C76U A91G	-2.17

Variant	polymerase ribozyme fitness (log ratio)
C76U A91C	-2.38
G77C C79U	0.563
C73G U112A	-0.766
A75G A121G	1.42
C73G U125A	-1.21
C73U A108U	-5.75
C76U G107C A121G U126A	-4.6
G77A C80A G120U	-2.54
C73U U96A U116G U130A	-3
C73G U78A C94A U125G	-1.59
C76A C94U G117C	-5.54
C76G A91U U132A	-1.52
C73U A121G	2.17
A74U C123U	0.766
C76U A83U	-0.0435
C73U U87A A91U U112A U116G	-4.55
C73U C94U U129A	-1.17
G77A C123G G135U	0.853
A75G G117A	-1.28
A74U C101U	-0.51
C73U C114U	-1.31
C73U C114A	-1.19
U78A C94G C101A	-1.93
A74U G120A C124G	2

Variant	polymerase ribozyme fitness (log ratio)
C73G C89G U131A	-2.56
G77U U78G C123A	-0.257
U78A G107A	-5.55
U78A G113A	-1.22
U78A G113U	-3.98
C76G C89U	-0.321
G77C C89U G110C G135A	-4.53
C73G C114U	-3.1
C73U U130C	0.504
C73U G113C	-1.54
C73U G113U	-3.18
C76A G127U	-2.17
A74U C80G U112A	-5.78
A75G A83C U130C U132A	0.388
A74G C102U	-2.11
C76G U109C A119U C123A	-6.47
G77U A103C	-4.83
G77A U87A C101G	-2.13
C73U C123G C124G	2.14
U78A C85U U112A	0.505
A74C A95U G113U U125A	-4.37
A74U C98A C99A	-6.51
G77C U96A U125A	-3.38
C73U C80G A118U	-4.47

Variant	polymerase ribozyme fitness (log ratio)
G77A C123U	1.1
G77A C123G	1.16
C76G U78A	0.247
G77A C80U	-0.237
A75U G117C	-3.99
C76A A105U C124A	-1.25
C76A U78A A91U U112G	-3.63
U78A C79U	0.293
C73U C101U G122A	-0.395
A74G A91C C124G	0.0731
U78A G128A	-1.76
C73U C124A	2.11
G77A C101A G117A	-3.06
G77U C88U C115U U131A	-1.33
A74G A83C C114A C123G C124G	-0.429
C76A A90G	-0.633
C73U U116A	-3.52
C73U C97A	-3.58
A74U A84U A91C C102G G113U C115G A118G G128U	-7.73
C76G C88G	-1.08
A74C C89A A91G C102A U109G	-5.5
C76G G120A	0.286
U78A G110A	-1.32
